From patent US20100285597A1 (UNIVERSITY OF ROCHESTER, published 2010) come the findings set out here.

The assay deals with T1, BACE1 (UniProt P56817 46-501, limits assumed).
T1 construct: Detected as monomer and dimer in the co-immunoprecipitates; also called β-secretase
In words: co-immunoprecipitation from HEK 293 lysates with nectin-1 cytoplasmic specific antibody, anti-BACE1 Western blot. Here is the method: To define the minimal region within the ectodomain of nectin-1 required for BACE1 interaction, immunoprecipitations between the nectin-1 truncation mutants and BACE1 were performed. BACE1 and full length or truncated nectin-1 were co-expressed in HEK 293 cells and harvested 48 hr. after transfection. To confirm to the efficiencies of the co-transfections, equal volumes of cell lysate were loaded on SDS-PAGE gels and analyzed by Western blot. Transfection efficiency was similar for nectin-1 and its derivates (FIG. 10A) and BACE1 (FIG. 10B). Immunoprecipitation was performed with a nectin-1 cytoplasmic specific antibody and precipitates were analyzed on two separate 10% SDS-PAGE. Western blots were probed with anti-nectin-1 (FIG. 10C) or anti-BACE1 (FIG. 10D) antibodies. The nectin-1 antibody directly immunoprecipitated the respective nectin-1 polypeptides and processed CTFs (FIG. 10C). Furthermore, BACE1, both monomer and dimer, was immunoprecipitated by the nectin-1 antibody, confirming the association of BACE1 with nectin-1. Two truncation mutants Δ28-250 and Δ28-300, interacted with BACE1 very strongly.
In general terms: Immunoblotting shows a protein as a band on a membrane.

T1 sequence (P56817 46-501 limits assumed): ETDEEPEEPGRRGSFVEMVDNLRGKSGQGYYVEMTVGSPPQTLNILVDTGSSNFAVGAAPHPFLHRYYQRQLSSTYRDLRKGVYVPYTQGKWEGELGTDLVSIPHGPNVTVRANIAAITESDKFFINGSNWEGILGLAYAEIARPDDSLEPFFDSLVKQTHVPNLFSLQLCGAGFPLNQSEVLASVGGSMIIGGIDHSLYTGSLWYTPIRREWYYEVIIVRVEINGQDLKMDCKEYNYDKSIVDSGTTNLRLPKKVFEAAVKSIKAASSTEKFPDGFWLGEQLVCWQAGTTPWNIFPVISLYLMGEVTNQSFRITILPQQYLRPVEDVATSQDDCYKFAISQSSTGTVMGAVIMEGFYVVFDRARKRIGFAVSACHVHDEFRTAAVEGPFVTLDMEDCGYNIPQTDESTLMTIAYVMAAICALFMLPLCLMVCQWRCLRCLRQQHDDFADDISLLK

B1: nectin-1 truncation mutant Δ28-349 (receptor)
chain: PTAIIGGVAGSILLVLIVVGGIVVALRRRRHTFKGDYSTKKHVYGNGYSKAGIPQHHPPMAQNLQYPDDSDDEKKAGPLGGSSYEEEEEEEEGGGGGERKVGGPHPKYDEDAKRPYFTVDEAEARQDGYGDRTLGYQYDPEQLDLAENMVSQNDGSFISKKEWYV
notes: see m5; not shown: flag tag at the C-terminus
Turning to B1, the binding result is “no binding”.
